Assay results reported in US20030219858A1.

Biological target: human heteromultimeric ASIC-2S.2 channel (human ASIC2A + human ASIC3) (human) (UniProt Q16515)
Experiment: cell-based or functional assay

human heteromultimeric ASIC-2S.2 channel (human ASIC2A + human ASIC3) (human), sequence (Q16515 whole entry, chain 1 of 2): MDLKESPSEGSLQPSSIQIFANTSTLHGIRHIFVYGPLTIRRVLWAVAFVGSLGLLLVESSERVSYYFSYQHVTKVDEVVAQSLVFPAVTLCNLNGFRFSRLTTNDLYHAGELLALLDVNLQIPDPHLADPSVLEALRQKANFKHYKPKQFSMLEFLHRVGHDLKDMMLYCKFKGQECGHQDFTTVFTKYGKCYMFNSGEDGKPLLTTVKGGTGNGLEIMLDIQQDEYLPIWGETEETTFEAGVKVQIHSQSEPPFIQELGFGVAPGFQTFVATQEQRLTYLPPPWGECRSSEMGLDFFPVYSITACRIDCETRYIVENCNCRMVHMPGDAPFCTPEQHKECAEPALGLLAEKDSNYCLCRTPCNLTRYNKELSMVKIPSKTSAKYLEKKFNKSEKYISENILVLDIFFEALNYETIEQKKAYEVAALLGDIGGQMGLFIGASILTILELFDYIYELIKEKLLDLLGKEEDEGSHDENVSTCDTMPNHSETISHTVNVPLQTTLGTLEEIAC
human heteromultimeric ASIC-2S.2 channel (human ASIC2A + human ASIC3) (human), sequence (chain, as listed by the source, chain 2 of 2): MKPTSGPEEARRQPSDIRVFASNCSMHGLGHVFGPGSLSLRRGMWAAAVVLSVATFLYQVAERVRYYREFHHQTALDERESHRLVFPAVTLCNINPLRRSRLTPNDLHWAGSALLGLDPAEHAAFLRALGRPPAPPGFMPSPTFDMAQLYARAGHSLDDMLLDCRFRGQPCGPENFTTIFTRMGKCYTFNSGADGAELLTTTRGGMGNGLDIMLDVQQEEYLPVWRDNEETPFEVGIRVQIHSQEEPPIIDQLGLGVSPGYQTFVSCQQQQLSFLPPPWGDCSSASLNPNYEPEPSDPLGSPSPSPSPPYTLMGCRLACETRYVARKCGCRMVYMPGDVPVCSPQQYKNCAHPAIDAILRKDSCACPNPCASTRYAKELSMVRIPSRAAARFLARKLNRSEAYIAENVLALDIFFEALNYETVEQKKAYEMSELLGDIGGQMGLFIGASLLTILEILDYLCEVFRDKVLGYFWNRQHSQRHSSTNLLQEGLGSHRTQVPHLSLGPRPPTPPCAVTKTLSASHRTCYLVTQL

EC50 of potentiation of currents induced by pH 4: 2 µM
Substance: NPFF (from UniProt O15130 69-76) (peptide)
